We go through one molecule from patent publication US20240024520A1, “AUTONOMOUS KNOB DOMAIN PEPTIDES” (UCB BIOPHARMA SRL, priority 2020, published 2024).

In assay [1] the target is rat C5 protein (Rattus norvegicus, UniProt P08650). The experiment in a line: Monoclonal phage screening ELISA, rat C5. It counts as binding. The settings on record: anti-C5 ultralong CDR-H3; binder = OD>0.2 AU. The procedure:
(§1) For the C5 libraries, a single round of enrichment was performed with either human or rat C5 protein. […] Phage were blocked for 30 minutes. Biotinylated antigen was added to the blocked phage at a concentration of 100 nM and incubated at room temperature with mixing.
(§2) Colonies were picked into a 96-well culture plate containing selective medium 2TY supplemented with 1% Glucose and 100 μg/ml Carbenicillin and was incubated at 37° C. until wells reached mid-log phase of growth prior to addition of M13K07 helper phage. The block was incubated without shaking for 1 hour to achieve infection and phage production using continued culture in selective media supplemented with 50 μg/ml Kanamycin and 100 μg/ml Carbenicillin.
[…] Negative control plate and Anti-myc tag plate were also prepared.
Monoclonal phage rescue supernatants were blocked with an equal volume of a 2% milk (w/v) in PBS, for serum albumin proteins, or 2% BSA and 2% milk (w/v) in PBS solution. The coating solution was removed from coated Nunc plates and each plate was blocked with 1% BSA in PBS (for C5 libraries) or 1% milk powder (for albumin library). Both phage and Nunc plates were blocked for 1 hour at room temperature. […] Absorbance was measured at 630 nm and 490 nm. Binding signals were obtained where Absorbance at 630 nm was >3-times the signal upon irrelevant antigen. […]

For assay [2], the target named is C5 (Homo sapiens, UniProt P01031). The experiment in a line: Monoclonal phage screening ELISA, human C5. It counts as binding. The settings on record: anti-C5 ultralong CDR-H3; binder = OD>0.2 AU. The method, then:
as §1, §2
Binding to antigen was assessed by monoclonal phage ELISA, 96-well flat bottom Nunc MaxiSorp plates (Thermofisher) were coated with a 2.5 μg/ml solution of human, mouse, or rat serum albumin, human C5 or mouse C5 diluted with PBS, and left overnight at 4° C. Negative control plate and Anti-myc tag plate were also prepared.
Monoclonal phage rescue supernatants were blocked with an equal volume of a 2% milk (w/v) in PBS, for serum albumin proteins, or 2% BSA and 2% milk (w/v) in PBS solution. The coating solution was removed from coated Nunc plates and each plate was blocked with 1% BSA in PBS (for C5 libraries) or 1% milk powder (for albumin library). Both phage and Nunc plates were blocked for 1 hour at room temperature. Nunc plates were washed using a 96-well microplate washer (BioTek) with a PBS solution contain 0.1% Tween20 (Sigma Aldrich). 100 of blocked phage solution was added to each well of Nunc MaxiSorp plate and left shaking at room temperature for 1 hour. Plates were washed and dried as previously described. 100 of an Anti-M13-Horse radish peroxidase conjugated antibody (GE Healthcare) diluted (1:5,000) in a 1% BSA or milk solution was added to each well and left shaking at room temperature for 1 hour. Plates were washed again and 50 μL of TMB solution (Merck Millipore) was added to each well. Plates were left shaking for 10 minutes. Absorbance was measured at 630 nm and 490 nm. Binding signals were obtained where Absorbance at 630 nm was >3-times the signal upon irrelevant antigen.
By monoclonal phage ELISA the following ultralong CDR-H3 sequences were identified as binders (OD>0.2 AU): […]

C5, sequence (P01031 19-1676): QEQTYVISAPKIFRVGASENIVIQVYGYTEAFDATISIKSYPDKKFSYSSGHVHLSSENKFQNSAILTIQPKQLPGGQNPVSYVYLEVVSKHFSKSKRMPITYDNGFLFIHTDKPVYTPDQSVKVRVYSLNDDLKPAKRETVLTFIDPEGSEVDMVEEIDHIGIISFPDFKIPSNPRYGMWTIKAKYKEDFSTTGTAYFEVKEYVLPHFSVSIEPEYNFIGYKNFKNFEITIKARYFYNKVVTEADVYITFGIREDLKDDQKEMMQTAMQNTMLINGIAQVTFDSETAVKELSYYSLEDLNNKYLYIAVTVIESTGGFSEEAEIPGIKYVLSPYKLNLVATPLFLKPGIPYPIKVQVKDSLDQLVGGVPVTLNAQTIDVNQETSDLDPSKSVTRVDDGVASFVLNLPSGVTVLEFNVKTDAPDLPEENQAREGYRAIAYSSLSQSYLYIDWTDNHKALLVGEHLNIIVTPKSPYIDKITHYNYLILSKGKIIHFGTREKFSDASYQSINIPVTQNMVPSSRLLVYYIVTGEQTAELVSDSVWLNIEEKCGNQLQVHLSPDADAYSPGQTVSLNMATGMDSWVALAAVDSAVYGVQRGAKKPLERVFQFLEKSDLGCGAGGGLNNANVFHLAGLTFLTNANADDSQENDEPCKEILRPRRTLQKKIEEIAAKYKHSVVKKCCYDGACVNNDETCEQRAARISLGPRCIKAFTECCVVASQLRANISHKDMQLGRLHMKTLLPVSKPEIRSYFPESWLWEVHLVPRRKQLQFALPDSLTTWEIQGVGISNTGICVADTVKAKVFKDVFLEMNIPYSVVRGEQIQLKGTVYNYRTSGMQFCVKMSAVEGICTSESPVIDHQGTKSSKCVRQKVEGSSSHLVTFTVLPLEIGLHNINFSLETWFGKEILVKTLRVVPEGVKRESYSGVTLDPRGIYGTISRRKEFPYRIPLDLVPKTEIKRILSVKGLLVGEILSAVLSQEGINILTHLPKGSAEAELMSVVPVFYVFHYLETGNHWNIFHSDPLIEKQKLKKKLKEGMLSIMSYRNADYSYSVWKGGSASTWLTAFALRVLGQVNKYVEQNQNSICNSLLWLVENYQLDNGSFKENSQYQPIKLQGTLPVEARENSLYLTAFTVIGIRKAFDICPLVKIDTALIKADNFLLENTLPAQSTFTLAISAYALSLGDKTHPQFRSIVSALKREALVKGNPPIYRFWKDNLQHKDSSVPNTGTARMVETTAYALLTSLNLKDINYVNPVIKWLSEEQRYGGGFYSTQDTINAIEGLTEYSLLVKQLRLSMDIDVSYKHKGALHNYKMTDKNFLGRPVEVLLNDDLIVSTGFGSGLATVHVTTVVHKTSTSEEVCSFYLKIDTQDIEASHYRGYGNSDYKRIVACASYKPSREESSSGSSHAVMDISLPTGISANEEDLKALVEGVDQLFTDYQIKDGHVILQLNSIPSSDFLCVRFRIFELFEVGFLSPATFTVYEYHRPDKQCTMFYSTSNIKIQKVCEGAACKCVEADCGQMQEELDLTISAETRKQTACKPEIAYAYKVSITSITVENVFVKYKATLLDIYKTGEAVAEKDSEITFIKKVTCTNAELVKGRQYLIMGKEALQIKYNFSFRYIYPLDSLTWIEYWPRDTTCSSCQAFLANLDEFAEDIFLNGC
rat C5 protein, sequence (P08650 19-674 limits assumed): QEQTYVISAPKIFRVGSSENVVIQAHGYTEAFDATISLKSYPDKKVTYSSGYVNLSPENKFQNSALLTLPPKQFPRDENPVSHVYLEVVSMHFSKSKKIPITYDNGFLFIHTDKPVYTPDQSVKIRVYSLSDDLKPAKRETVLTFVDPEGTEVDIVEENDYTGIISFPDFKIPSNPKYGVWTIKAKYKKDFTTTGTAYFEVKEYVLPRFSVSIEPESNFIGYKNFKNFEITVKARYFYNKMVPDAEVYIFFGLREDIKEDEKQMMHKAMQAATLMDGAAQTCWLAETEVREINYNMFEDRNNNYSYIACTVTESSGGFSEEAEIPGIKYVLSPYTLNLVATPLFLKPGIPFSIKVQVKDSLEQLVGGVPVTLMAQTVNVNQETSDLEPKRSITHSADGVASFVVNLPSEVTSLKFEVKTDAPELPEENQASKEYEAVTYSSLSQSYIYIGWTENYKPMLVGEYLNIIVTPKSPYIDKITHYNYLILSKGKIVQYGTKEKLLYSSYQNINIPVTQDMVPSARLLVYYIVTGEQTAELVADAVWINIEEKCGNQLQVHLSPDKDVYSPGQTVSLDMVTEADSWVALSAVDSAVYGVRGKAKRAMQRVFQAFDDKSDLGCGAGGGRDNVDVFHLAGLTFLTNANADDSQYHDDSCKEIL
rat C5 protein, sequence (P08650 679-1681 limits assumed): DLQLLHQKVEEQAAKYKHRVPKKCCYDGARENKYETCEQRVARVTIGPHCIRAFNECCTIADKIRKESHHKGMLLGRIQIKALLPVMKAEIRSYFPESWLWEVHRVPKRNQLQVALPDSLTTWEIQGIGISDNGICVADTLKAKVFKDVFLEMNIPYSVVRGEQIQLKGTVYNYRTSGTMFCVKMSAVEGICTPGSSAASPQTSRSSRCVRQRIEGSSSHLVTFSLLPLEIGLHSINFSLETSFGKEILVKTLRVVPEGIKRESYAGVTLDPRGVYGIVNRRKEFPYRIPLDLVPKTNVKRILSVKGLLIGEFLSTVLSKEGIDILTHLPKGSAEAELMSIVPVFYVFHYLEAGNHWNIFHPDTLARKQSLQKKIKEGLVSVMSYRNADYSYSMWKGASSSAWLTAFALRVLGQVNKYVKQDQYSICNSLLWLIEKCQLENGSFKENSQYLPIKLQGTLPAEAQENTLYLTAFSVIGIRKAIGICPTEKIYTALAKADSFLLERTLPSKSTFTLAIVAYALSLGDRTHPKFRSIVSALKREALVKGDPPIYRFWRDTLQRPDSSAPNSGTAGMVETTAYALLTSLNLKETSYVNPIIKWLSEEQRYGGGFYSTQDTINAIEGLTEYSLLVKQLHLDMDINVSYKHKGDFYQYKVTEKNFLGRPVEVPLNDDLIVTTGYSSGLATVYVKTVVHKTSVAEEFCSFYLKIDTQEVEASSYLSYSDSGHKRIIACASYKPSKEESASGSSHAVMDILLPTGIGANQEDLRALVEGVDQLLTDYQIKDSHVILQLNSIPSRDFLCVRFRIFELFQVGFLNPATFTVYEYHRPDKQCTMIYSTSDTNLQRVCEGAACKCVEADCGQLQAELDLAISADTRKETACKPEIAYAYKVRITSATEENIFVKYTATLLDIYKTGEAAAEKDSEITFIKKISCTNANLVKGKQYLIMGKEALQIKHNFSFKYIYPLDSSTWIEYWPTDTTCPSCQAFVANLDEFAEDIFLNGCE

B1: 556 (protein)
CDR: TTVHQKTTRVNSCPDGYGYGDGYCYDSGCSASDCYGVDALYSYGHCGCSIYTERPRYEWYVD
modifications: Anti-C5 ultralong CDR-H3
Consider B1, for which the Specificity result in assay [1] is “Human and Rat”; in assay [2], “Human and Rat”.
